We go through seven molecules from patent US20140087995A1 (published 2014).

Numbered stars: 1 amine (or outer) side, 2 acyl side, 3 side chain; on linkers, the order of the positions; unused ones are H or OH. Bridge positions count the residues as written; N and C are the ends. Side chains are listed from the residue outwards. Ends that are not written are not given here. * marks the point of attachment. C20 diacid = O=C(O)CCCCCCCCCCCCCCCCCCC(=O)*; γGlu = O=C(O)[C@H](CCC(=O)[*:2])N[*:1]

The assay has as its target T1, human amylin receptor (human, UniProt P30988 25-474; O60896 24-148, limits assumed).
T1 construct: whole, on cells; Calcitonin receptor plus RAMP-3 gives the amylin 3(a) receptor; membranes of Amylin 3(a)/CRE-luc cells were used; also called hAmylin-R; hAmylinR
T1 sequence (looked up) 1: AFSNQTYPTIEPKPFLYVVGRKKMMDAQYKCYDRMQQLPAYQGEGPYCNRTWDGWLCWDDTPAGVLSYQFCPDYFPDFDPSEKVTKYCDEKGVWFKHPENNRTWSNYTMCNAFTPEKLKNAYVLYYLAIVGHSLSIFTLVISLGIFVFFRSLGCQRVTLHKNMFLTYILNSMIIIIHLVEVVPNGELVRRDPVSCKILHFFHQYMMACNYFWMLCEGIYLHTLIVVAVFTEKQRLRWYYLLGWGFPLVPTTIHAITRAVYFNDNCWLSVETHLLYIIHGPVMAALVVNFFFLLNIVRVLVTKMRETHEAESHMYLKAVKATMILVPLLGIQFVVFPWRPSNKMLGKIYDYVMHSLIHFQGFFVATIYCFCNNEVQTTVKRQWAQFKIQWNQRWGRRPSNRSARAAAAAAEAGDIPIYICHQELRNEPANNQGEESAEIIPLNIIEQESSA
T1 sequence (looked up) 2: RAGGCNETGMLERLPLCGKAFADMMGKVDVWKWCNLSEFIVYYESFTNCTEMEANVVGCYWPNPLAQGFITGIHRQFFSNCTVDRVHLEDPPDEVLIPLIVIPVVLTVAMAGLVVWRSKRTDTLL
Nature of the assay: SPA competition binding, displacement of 125I-rat amylin from membranes with human amylin 3(a) receptor (Assay V). The gist of the method:
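Membranes from BHK Amylin 3(a)/CRE-luc cells (35 ng/μL final) were mixed with SPA beads and test compounds in 50 mM Hepes pH 7.4 with 1 mM CaCl2, 5 mM MgCl₂, 0.1% OA and 0.02% Tween20. Incubation ran 120 min at 25° C with shaking; IC₅₀ came from one-site competition fitting.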
(In general: Displacement assays read how much labelled ligand stays bound in the presence of the test substance.)

B1: N^ε1-[(4S)-4-carboxy-4-(19-carboxynonadecanoylamino)butanoyl]-[Glu14,Arg17,Pro21,Pro27,Pro34,Glu35]-h-amylin (peptide)
peptide: K([γGlu-C20 diacid])CNTATCATQRLAEFLRHSSPNFGAIPSSTNVGPETY-NH2
modifications: disulfide 2-7; N-terminus assumed
SMILES: CC[C@H](C)[C@H](NC(=O)[C@H](C)NC(=O)CNC(=O)[C@H](Cc1ccccc1)NC(=O)[C@H](CC(N)=O)NC(=O)[C@@H]1CCCN1C(=O)[C@H](CO)NC(=O)[C@H](CO)NC(=O)[C@H](Cc1c[nH]cn1)NC(=O)[C@H](CCCNC(=N)N)NC(=O)[C@H](CC(C)C)NC(=O)[C@H](Cc1ccccc1)NC(=O)[C@H](CCC(=O)O)NC(=O)[C@H](C)NC(=O)[C@H](CC(C)C)NC(=O)[C@H](CCCNC(=N)N)NC(=O)[C@H](CCC(N)=O)NC(=O)[C@@H](NC(=O)[C@H](C)NC(=O)[C@@H]1CSSC[C@H](NC(=O)[C@@H](N)CCCCNC(=O)CC[C@H](NC(=O)CCCCCCCCCCCCCCCCCCC(=O)O)C(=O)O)C(=O)N[C@@H](CC(N)=O)C(=O)N[C@@H]([C@@H](C)O)C(=O)N[C@@H](C)C(=O)N[C@@H]([C@@H](C)O)C(=O)N1)[C@@H](C)O)C(=O)N1CCC[C@H]1C(=O)N[C@@H](CO)C(=O)N[C@@H](CO)C(=O)N[C@H](C(=O)N[C@@H](CC(N)=O)C(=O)N[C@H](C(=O)NCC(=O)N1CCC[C@H]1C(=O)N[C@@H](CCC(=O)O)C(=O)N[C@H](C(=O)N[C@@H](Cc1ccc(O)cc1)C(N)=O)[C@@H](C)O)C(C)C)[C@@H](C)O
notes: also called 14E, 17R, 21P, 27P, 34P, 35E
As for B1, the IC50 came to 0.14 nM.

B2: N^ε1-[(4S)-4-carboxy-4-(19-carboxynonadecanoylamino)butanoyl]-[His14,Arg17,Pro21,Pro27,Pro31]-h-amylin (peptide)
peptide: K([γGlu-C20 diacid])CNTATCATQRLAHFLRHSSPNFGAIPSSTPVGSNTY-NH2
modifications: disulfide 2-7; N-terminus assumed
SMILES: CC[C@H](C)[C@H](NC(=O)[C@H](C)NC(=O)CNC(=O)[C@H](Cc1ccccc1)NC(=O)[C@H](CC(N)=O)NC(=O)[C@@H]1CCCN1C(=O)[C@H](CO)NC(=O)[C@H](CO)NC(=O)[C@H](Cc1c[nH]cn1)NC(=O)[C@H](CCCNC(=N)N)NC(=O)[C@H](CC(C)C)NC(=O)[C@H](Cc1ccccc1)NC(=O)[C@H](Cc1c[nH]cn1)NC(=O)[C@H](C)NC(=O)[C@H](CC(C)C)NC(=O)[C@H](CCCNC(=N)N)NC(=O)[C@H](CCC(N)=O)NC(=O)[C@@H](NC(=O)[C@H](C)NC(=O)[C@@H]1CSSC[C@H](NC(=O)[C@@H](N)CCCCNC(=O)CC[C@H](NC(=O)CCCCCCCCCCCCCCCCCCC(=O)O)C(=O)O)C(=O)N[C@@H](CC(N)=O)C(=O)N[C@@H]([C@@H](C)O)C(=O)N[C@@H](C)C(=O)N[C@@H]([C@@H](C)O)C(=O)N1)[C@@H](C)O)C(=O)N1CCC[C@H]1C(=O)N[C@@H](CO)C(=O)N[C@@H](CO)C(=O)N[C@H](C(=O)N1CCC[C@H]1C(=O)N[C@H](C(=O)NCC(=O)N[C@@H](CO)C(=O)N[C@@H](CC(N)=O)C(=O)N[C@H](C(=O)N[C@@H](Cc1ccc(O)cc1)C(N)=O)[C@@H](C)O)C(C)C)[C@@H](C)O
notes: also called 14H, 17R, 21P, 27P, 31P
In turn, B2 had an IC50 of 0.098 nM.

B3: N^ε1-[(4S)-4-carboxy-4-(19-carboxynonadecanoylamino)butanoyl]-[Glu14,Arg17,Pro21,Pro27,Pro34,Pro37]-h-amylin (peptide)
peptide: K([γGlu-C20 diacid])CNTATCATQRLAEFLRHSSPNFGAIPSSTNVGPNTP-NH2
modifications: disulfide 2-7; N-terminus assumed
SMILES: CC[C@H](C)[C@H](NC(=O)[C@H](C)NC(=O)CNC(=O)[C@H](Cc1ccccc1)NC(=O)[C@H](CC(N)=O)NC(=O)[C@@H]1CCCN1C(=O)[C@H](CO)NC(=O)[C@H](CO)NC(=O)[C@H](Cc1c[nH]cn1)NC(=O)[C@H](CCCNC(=N)N)NC(=O)[C@H](CC(C)C)NC(=O)[C@H](Cc1ccccc1)NC(=O)[C@H](CCC(=O)O)NC(=O)[C@H](C)NC(=O)[C@H](CC(C)C)NC(=O)[C@H](CCCNC(=N)N)NC(=O)[C@H](CCC(N)=O)NC(=O)[C@@H](NC(=O)[C@H](C)NC(=O)[C@@H]1CSSC[C@H](NC(=O)[C@@H](N)CCCCNC(=O)CC[C@H](NC(=O)CCCCCCCCCCCCCCCCCCC(=O)O)C(=O)O)C(=O)N[C@@H](CC(N)=O)C(=O)N[C@@H]([C@@H](C)O)C(=O)N[C@@H](C)C(=O)N[C@@H]([C@@H](C)O)C(=O)N1)[C@@H](C)O)C(=O)N1CCC[C@H]1C(=O)N[C@@H](CO)C(=O)N[C@@H](CO)C(=O)N[C@H](C(=O)N[C@@H](CC(N)=O)C(=O)N[C@H](C(=O)NCC(=O)N1CCC[C@H]1C(=O)N[C@@H](CC(N)=O)C(=O)N[C@H](C(=O)N1CCC[C@H]1C(N)=O)[C@@H](C)O)C(C)C)[C@@H](C)O
notes: also called 14E, 17R, 21P, 27P, 34P, 37P
As to B3, the IC50 was 0.214 nM.

B4: N^ε1-[(4S)-4-carboxy-4-(19-carboxynonadecanoylamino)butanoyl]-[His14,Arg17,Pro21,Pro27,His34]-h-amylin (peptide)
peptide: K([γGlu-C20 diacid])CNTATCATQRLAHFLRHSSPNFGAIPSSTNVGHNTY-NH2
modifications: disulfide 2-7; N-terminus assumed
SMILES: CC[C@H](C)[C@H](NC(=O)[C@H](C)NC(=O)CNC(=O)[C@H](Cc1ccccc1)NC(=O)[C@H](CC(N)=O)NC(=O)[C@@H]1CCCN1C(=O)[C@H](CO)NC(=O)[C@H](CO)NC(=O)[C@H](Cc1c[nH]cn1)NC(=O)[C@H](CCCNC(=N)N)NC(=O)[C@H](CC(C)C)NC(=O)[C@H](Cc1ccccc1)NC(=O)[C@H](Cc1c[nH]cn1)NC(=O)[C@H](C)NC(=O)[C@H](CC(C)C)NC(=O)[C@H](CCCNC(=N)N)NC(=O)[C@H](CCC(N)=O)NC(=O)[C@@H](NC(=O)[C@H](C)NC(=O)[C@@H]1CSSC[C@H](NC(=O)[C@@H](N)CCCCNC(=O)CC[C@H](NC(=O)CCCCCCCCCCCCCCCCCCC(=O)O)C(=O)O)C(=O)N[C@@H](CC(N)=O)C(=O)N[C@@H]([C@@H](C)O)C(=O)N[C@@H](C)C(=O)N[C@@H]([C@@H](C)O)C(=O)N1)[C@@H](C)O)C(=O)N1CCC[C@H]1C(=O)N[C@@H](CO)C(=O)N[C@@H](CO)C(=O)N[C@H](C(=O)N[C@@H](CC(N)=O)C(=O)N[C@H](C(=O)NCC(=O)N[C@@H](Cc1c[nH]cn1)C(=O)N[C@@H](CC(N)=O)C(=O)N[C@H](C(=O)N[C@@H](Cc1ccc(O)cc1)C(N)=O)[C@@H](C)O)C(C)C)[C@@H](C)O
notes: also called 14H, 17R, 21P, 27P, 34H
Take B4: the IC50 is 0.271 nM.

B5: N^ε1-[(4S)-4-carboxy-4-(19-carboxynonadecanoylamino)butanoyl]-[His14,Arg17,Pro21,Pro27,Pro31,Pro34]-h-amylin (peptide)
peptide: K([γGlu-C20 diacid])CNTATCATQRLAHFLRHSSPNFGAIPSSTPVGPNTY-NH2
modifications: disulfide 2-7; N-terminus assumed
SMILES: CC[C@H](C)[C@H](NC(=O)[C@H](C)NC(=O)CNC(=O)[C@H](Cc1ccccc1)NC(=O)[C@H](CC(N)=O)NC(=O)[C@@H]1CCCN1C(=O)[C@H](CO)NC(=O)[C@H](CO)NC(=O)[C@H](Cc1c[nH]cn1)NC(=O)[C@H](CCCNC(=N)N)NC(=O)[C@H](CC(C)C)NC(=O)[C@H](Cc1ccccc1)NC(=O)[C@H](Cc1c[nH]cn1)NC(=O)[C@H](C)NC(=O)[C@H](CC(C)C)NC(=O)[C@H](CCCNC(=N)N)NC(=O)[C@H](CCC(N)=O)NC(=O)[C@@H](NC(=O)[C@H](C)NC(=O)[C@@H]1CSSC[C@H](NC(=O)[C@@H](N)CCCCNC(=O)CC[C@H](NC(=O)CCCCCCCCCCCCCCCCCCC(=O)O)C(=O)O)C(=O)N[C@@H](CC(N)=O)C(=O)N[C@@H]([C@@H](C)O)C(=O)N[C@@H](C)C(=O)N[C@@H]([C@@H](C)O)C(=O)N1)[C@@H](C)O)C(=O)N1CCC[C@H]1C(=O)N[C@@H](CO)C(=O)N[C@@H](CO)C(=O)N[C@H](C(=O)N1CCC[C@H]1C(=O)N[C@H](C(=O)NCC(=O)N1CCC[C@H]1C(=O)N[C@@H](CC(N)=O)C(=O)N[C@H](C(=O)N[C@@H](Cc1ccc(O)cc1)C(N)=O)[C@@H](C)O)C(C)C)[C@@H](C)O
notes: also called 14H, 17R, 21P, 27P, 31P, 34P
In turn, B5 yielded an IC50 of 0.082 nM.

B6: N^ε1-[(4S)-4-carboxy-4-(19-carboxynonadecanoylamino)butanoyl]-[His14,Arg17,Pro21,Pro27,His35]-h-amylin (peptide)
peptide: K([γGlu-C20 diacid])CNTATCATQRLAHFLRHSSPNFGAIPSSTNVGSHTY-NH2
modifications: disulfide 2-7; N-terminus assumed
SMILES: CC[C@H](C)[C@H](NC(=O)[C@H](C)NC(=O)CNC(=O)[C@H](Cc1ccccc1)NC(=O)[C@H](CC(N)=O)NC(=O)[C@@H]1CCCN1C(=O)[C@H](CO)NC(=O)[C@H](CO)NC(=O)[C@H](Cc1c[nH]cn1)NC(=O)[C@H](CCCNC(=N)N)NC(=O)[C@H](CC(C)C)NC(=O)[C@H](Cc1ccccc1)NC(=O)[C@H](Cc1c[nH]cn1)NC(=O)[C@H](C)NC(=O)[C@H](CC(C)C)NC(=O)[C@H](CCCNC(=N)N)NC(=O)[C@H](CCC(N)=O)NC(=O)[C@@H](NC(=O)[C@H](C)NC(=O)[C@@H]1CSSC[C@H](NC(=O)[C@@H](N)CCCCNC(=O)CC[C@H](NC(=O)CCCCCCCCCCCCCCCCCCC(=O)O)C(=O)O)C(=O)N[C@@H](CC(N)=O)C(=O)N[C@@H]([C@@H](C)O)C(=O)N[C@@H](C)C(=O)N[C@@H]([C@@H](C)O)C(=O)N1)[C@@H](C)O)C(=O)N1CCC[C@H]1C(=O)N[C@@H](CO)C(=O)N[C@@H](CO)C(=O)N[C@H](C(=O)N[C@@H](CC(N)=O)C(=O)N[C@H](C(=O)NCC(=O)N[C@@H](CO)C(=O)N[C@@H](Cc1c[nH]cn1)C(=O)N[C@H](C(=O)N[C@@H](Cc1ccc(O)cc1)C(N)=O)[C@@H](C)O)C(C)C)[C@@H](C)O
notes: also called 14H, 17R, 21P, 27P, 35H
B6 returned an IC50 of 0.396 nM.

B7: N^ε1-[(4S)-4-carboxy-4-(19-carboxynonadecanoylamino)butanoyl]-[Glu14,Arg17,Pro21,Pro27,Pro34,His35]-h-amylin (peptide)
peptide: K([γGlu-C20 diacid])CNTATCATQRLAEFLRHSSPNFGAIPSSTNVGPHTY-NH2
modifications: disulfide 2-7
notes: also called 14E, 17R, 21P, 27P, 34P, 35H
With B7, the IC50 is 0.179 nM.

By IC50 is commonly meant the concentration that inhibits the measured activity by half. Higher therefore signals weaker potency in that assay.
